According to US20070160576A1, “IL-17A/F heterologous polypeptides and therapeutic uses thereof” (Genentech, Inc., priority 2001, published 2007):
Entries after “also recorded” stand apart in the source; their conditions may differ.

Assays:
[1] = test system: TK-10 cells; test: IL-8 and IL-6 production in TK-10 cells (ELISA of conditioned media); assay type: cell-based, human; settings: for IL-8 production: IL-8 ELISA
Procedure: Fractions were tested by incubation with TK-10 cells for 24 hours (0.033 microliters fraction/ml of cell culture media). Conditioned media was then collected and IL-8 and IL-6 concentration measurements were performed on each fraction by ELISA. […] Gels, blots, amino acid sequence and activity assays were run on this fraction (FIG. 3). Alternatively, fraction 31 and the remaining volume of fraction 32, from the HiLoad S Sepharose run were pooled and dialyzed against Buffer A for eight hours using a 10 kD cutoff membrane and passed through a 0.2 micron filter. […] Fractions 26-43 were assayed and protein concentrations were determined by amino acid analysis. Pure IL-17A/F was identified in fractions 31-33 as a single protein with apparent molecular mass of 30-35 kD. The concentrations of fractions 31, 32 and 33 were 0.258, 0.359 and 0.291 mg/ml respectively.
IL-17A/F, IL-17 and IL-17F were incubated with TK-10 cells at the indicated concentrations for 24 hours.
TK-10 conditioned media was collected and analyzed by IL-8 ELISA and IL-6 ELISA.

[2] = target: T1, IL-17RH1 (PRO5801) (Homo sapiens, UniProt Q9NRM6); test: SPR (BIAcore) binding measurements; settings: for Koff × 10^4: value is Koff × 10^4; for Kon × 10^−5: value is Kon × 10^−5
T1 construct: the extracellular domains (ECDs) of either of the two receptors IL-17R (designated PRO1) and IL-17RH1 (PRO5801)
T1 sequence (Q9NRM6 18-292 limits assumed): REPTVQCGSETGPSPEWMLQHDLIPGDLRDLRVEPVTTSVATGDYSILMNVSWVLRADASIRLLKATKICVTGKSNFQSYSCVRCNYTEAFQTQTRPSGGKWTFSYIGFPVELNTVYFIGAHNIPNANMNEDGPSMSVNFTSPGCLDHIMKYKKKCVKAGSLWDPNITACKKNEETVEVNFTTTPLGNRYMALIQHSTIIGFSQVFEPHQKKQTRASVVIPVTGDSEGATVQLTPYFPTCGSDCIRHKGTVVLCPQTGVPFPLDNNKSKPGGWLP
Procedure: (§1) The kinetics and affinity of IL-17, IL-17E (PRO10272), or IL-17F (PRO20110) binding to IL-17R or IL-17RH1 (PRO5801) were determined by SPR measurements on a Pharmacia BIAcore 1000 instrument (Phamacia Biosensor, Piscataway N.J.). IL-17 ligand or receptor was immobilized onto a flow cell of a CM5 sensor chip via random coupling to amino groups, N-hydroxysuccinimide chemistry, by using a protocol developed by the manufacturer. An immobilization level of about 500 resonance units (RU) was obtained for IL-17R, IL-17RH1, and IL-17F, whereas IL-17 and IL-17E immobilization levels were 1200 and 1500 RU, respectively. A strong signal was obtained for IL-17R binding to immobilized IL-17. […] After blocking unreacted sites with ethanolamine, binding measurements were performed using a flow rate of 25 ┘L/min. Sensorgrams-were obtained for a series of six, two-fold serially diluted protein solutions. The highest concentration used was 1000 or 500 nM protein and the solutions were prepared in the running buffer, PBS containing 0.05% Tween-20. The sensor chip surface was regenerated between binding cycles by injection of a 25 ┘L aliquot of 0.1 M acetic acid, 0.2 M NaCl, pH 3 to elute non-covalent bound protein. Sensorgrams were evaluated according to a 1:1 binding model by non-linear regression analysis using software supplied by the manufacturer. In separate experiments to measure competition between IL-17 variants for binding receptors, a fixed concentration of receptor was incubated with a varied concentration of IL-17 protein followed by injection of this mixture onto a flow cell having immobilized IL-17 protein. The amount of bound receptor was determined from the resonance signal obtained after completion of the association phase.

[3] = target: T2, IL-17R (Homo sapiens, UniProt Q96F46); test: SPR (BIAcore) binding measurements; settings: for SPR binding to IL-17R (in words): IL-17R in solution, cytokine immobilized
T2 construct: the extracellular domains (ECDs) of either of the two receptors IL-17R (designated PRO1) and IL-17RH1 (PRO5801)
Procedure: as §1

[4] = target: human IL-17 receptor (IL-17R, PRO1) (Homo sapiens, UniProt Q96F46); test: Receptor/ligand interaction screening assay (immunoadhesin); assay type: binding
Procedure: (§2) In general, the assay is performed as follows. A PRO polypeptide of the present invention suspected of being a ligand for a receptor is expressed as a fusion protein containing the Fc domain of human IgG (an immunoadhesin). Receptor-ligand binding is detected by allowing interaction of the immunoadhesin polypeptide with cells (e.g. Cos cells) expressing candidate PRO polypeptide receptors and visualization of bound immunoadhesin with fluorescent reagents directed toward the Fc fusion domain and examination by microscope. Cells expressing candidate receptors are produced by transient transfection, in parallel, of defined subsets of a library of cDNA expression vectors encoding PRO polypeptides that may function as receptor molecules. Cells are then incubated for 1 hour in the presence of the PRO polypeptide immunoadhesin being tested for possible receptor binding. The cells are then washed and fixed with paraformaldehyde. The cells are then incubated with fluorescent conjugated antibody directed against the Fc portion of the PRO polypeptide immunoadhesin (e.g. FITC conjugated goat anti-human-Fc antibody). The cells are then washed again and examined by microscope. A positive interaction is judged by the presence of fluorescent labeling of cells transfected with cDNA encoding a particular PRO polypeptide receptor or pool of receptors and an absence of similar fluorescent labeling of similarly prepared cells that have been transfected with other cDNA or pools of cDNA. If a defined pool of cDNA expression vectors is judged to be positive for interaction with a PRO polypeptide immunoadhesin, the individual cDNA species that comprise the pool are tested individually (the pool is “broken down”) to determine the specific cDNA that encodes a receptor able to interact with the PRO polypeptide immunoadhesin.
(§3) In another embodiment of this assay, an epitope-tagged potential ligand PRO polypeptide (e.g., 8 histidine “His” tag) is allowed to interact with a panel of potential receptor PRO polypeptide molecules that have been expressed as fusions with the Fc domain of human IgG (immunoadhesins). Following a 1 hour co-incubation with the epitope tagged PRO polypeptide, the candidate receptors are each immunoprecipitated with protein A beads and the beads are washed. Potential ligand interaction is determined by Western blot analysis of the immunoprecipitated complexes with antibody directed towards the epitope tag. An interaction is judged to occur if a band of the anticipated molecular weight of the epitope tagged protein is observed in the Western blot analysis with a candidate receptor, but is not observed to occur with the other members of the panel of potential receptors.

[5] = target: T2, IL-17R; test: SPR competition for receptor binding to immobilized IL-17; settings: IL-17R 500 nM; IL-17F at 2 ┘M
Procedure: as §1, with “The sensor chip surface was regenerated between binding cycles by injection of a 25 ┘L aliquot of 0.1 M acetic acid, 0.2 M NaCl, pH 3 to elute non-covalent bound protein.” left out, “In separate experiments to measure competition between IL-17 variants for binding receptors, a fixed concentration of receptor was incubated with a varied concentration of IL-17 protein followed by injection of this mixture onto a flow cell having immobilized IL-17 protein.” left out, “phase. […]” for “phase.”

[6] = target: T3, IL-17R on transfected Cos cells (human, UniProt Q96F46 33-866); test: binding to transfected Cos cells; data not shown
T3 construct: whole, on cells; also called Cos cells transfected with IL-17R

[7] = target: T4, IL-17RH1 (PRO5801) extracellular domain, purified, monomeric (human, UniProt Q9NRM6 18-292); test: SPR (BIAcore), IL-17F immobilized
T4 construct: extracellular domain
T4 sequence (looked up): T1 sequence (Q9NRM6 18-292 limits assumed)
Procedure: (§4) Sensorgrams-were obtained for a series of six, two-fold serially diluted protein solutions. The highest concentration used was 1000 or 500 nM protein and the solutions were prepared in the running buffer, PBS containing 0.05% Tween-20. The sensor chip surface was regenerated between binding cycles by injection of a 25 ┘L aliquot of 0.1 M acetic acid, 0.2 M NaCl, pH 3 to elute non-covalent bound protein. Sensorgrams were evaluated according to a 1:1 binding model by non-linear regression analysis using software supplied by the manufacturer. […] The amount of bound receptor was determined from the resonance signal obtained after completion of the association phase.

[8] = target: T4, IL-17RH1 (PRO5801) extracellular …; test: SPR (BIAcore 1000), IL-17RH1 immobilized, 1:1 model
[9] = target: T5, PRO5801 (human IL-17RH1 receptor) (Homo sapiens, UniProt Q9NRM6); test: Receptor/ligand interaction screening assay (immunoadhesin); assay type: binding
T5 sequence (Q9NRM6 18-502): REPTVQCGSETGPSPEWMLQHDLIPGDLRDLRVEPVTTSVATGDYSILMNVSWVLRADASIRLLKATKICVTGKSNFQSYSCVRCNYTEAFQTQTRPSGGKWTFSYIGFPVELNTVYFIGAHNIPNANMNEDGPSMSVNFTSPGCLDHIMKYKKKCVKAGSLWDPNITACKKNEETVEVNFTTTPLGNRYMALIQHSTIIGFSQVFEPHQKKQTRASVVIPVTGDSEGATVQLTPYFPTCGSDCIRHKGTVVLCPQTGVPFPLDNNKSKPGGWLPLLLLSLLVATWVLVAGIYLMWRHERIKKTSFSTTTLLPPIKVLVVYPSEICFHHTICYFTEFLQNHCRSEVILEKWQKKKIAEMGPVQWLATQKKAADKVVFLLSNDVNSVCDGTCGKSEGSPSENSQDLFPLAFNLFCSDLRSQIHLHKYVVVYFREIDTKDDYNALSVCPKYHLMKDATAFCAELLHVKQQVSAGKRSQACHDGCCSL
Procedure: as §2, §3

[10] = target: T6, IL-17R (PRO1) extracellular domain, purified, monomeric (human, UniProt Q96F46 33-320); test: SPR (BIAcore)
T6 construct: extracellular domain; also called human IL-17 receptor
Procedure: as §4

[11] = target: T4, IL-17RH1 (PRO5801) extracellular …; test: SPR (BIAcore 1000), IL-17E immobilized, 1:1 model
Procedure: as §4

[12] = target: T7, IL-17RH1 (Homo sapiens, UniProt Q9NRM6); test: SPR competition for receptor binding to immobilized IL-17E; settings: IL-17RH1 31 nM; IL-17F at 1.3 ┘M
T7 construct: the extracellular domains (ECDs) of either of the two receptors IL-17R (designated PRO1) and IL-17RH1 (PRO5801)
T7 sequence (Q9NRM6 18-292 limits assumed): T1 sequence (Q9NRM6 18-292 limits assumed)
Procedure: as §1, with “The sensor chip surface was regenerated between binding cycles by injection of a 25 ┘L aliquot of 0.1 M acetic acid, 0.2 M NaCl, pH 3 to elute non-covalent bound protein.” left out, “In separate experiments to measure competition between IL-17 variants for binding receptors, a fixed concentration of receptor was incubated with a varied concentration of IL-17 protein followed by injection of this mixture onto a flow cell having immobilized IL-17 protein.” left out, “phase. […]” for “phase.”

[13] = immobilized IL-17E, ligand IL-17RH1
[14] = immobilized IL-17RH1, ligand IL-17E

IL-17A/F: novel human cytokine, covalent heterodimer of one IL-17 chain and one IL-17F chain
difference in activity (potency) from IL-17 and IL-17F ([1]; IL-8 induction in TK-10 cells, greater activity than IL-17F): roughly an order of magnitude | IL-6 production ([1]; TK-10 cells, 24 hours, IL-6 ELISA): induced production of IL-6 | IL-8 production ([1]; TK-10 cells, 24 hours): robustly induced IL-8 production; also recorded: induce IL-8 production; also recorded: potent IL-8 inducing activity | IL-8 production ([1]; TK-10 cells, 24 hours, listed as Fraction 38): robust activity

IL-17: human IL-17 cytokine, SEQ ID NO:3
SPR binding to IL-17RH1 (in words) [2]: no binding was observed | SPR signal for binding to immobilized IL-17R ([3]; IL-17R immobilized): weak signal | SPR binding to IL-17R (in words) [3]: strong signal; also recorded: modest binding affinity | Koff × 10^4 ([3]; immobilized IL-17, ligand IL-17R, value is Koff × 10^4): 6.7 s^−1 | Kon × 10^−5 ([3]; immobilized IL-17, ligand IL-17R, value is Kon × 10^−5): 0.093 M^−1 s^−1 | binding to human IL-17 receptor (IL-17R, PRO1) [4]: binds to | competition for binding of IL-17R to immobilized IL-17 [5]: efficiently block binding | IL-8 production ([1]; TK-10 cells, 24 hours): production of IL-8

B1: human IL-17F (PRO20110) (ligand)
chain: RKIPKVGHTFFQKPESCPPVPGGSMKLDIGIINENQRVSMSRNIESRSTSPWNYTVTWDPNRYPSEVVQAQCRNLGCINAQGKEDISMNSVPIQQETLVVRRKHQGCSVSFQLEKVLVTVGCTCVTPVIHHVQ
notes: disulfide-linked homodimer, glycosylated at Asn 53
binding result [6]: binds | binding result [7]: no binding (tested: up to 0.5 µM (printed 0.5 ┘M))

B2: human IL-17E (PRO10272), protein used in SPR (ligand, UniProt Q9H293 33-177, looked up)
chain: YSHWPSCCPSKGQDTSEELLRWSTVPVPPLEPARPNRHPESCRASEDGPLNSRAISPWRYELDRDLNRLPQDLYHARCLCPHCVSLQTGSHMDPRGNSELLYHNQTVFYRRPCHGEKGTHKGYCLERRLYRVSLACVCVRPRVMG
notes: construct not described
Kd [8]: 1.4 nM | koff [8]: 0.00062 s⁻¹ | kon [8]: 430000 M⁻¹ s⁻¹ | SPR binding to IL-17RH1 (in words) [2]: high affinity binding | Koff × 10^4 [2, 13]: 7.0 s^−1 | Kon × 10^−5 [2, 13]: 6.7 M^−1 s^−1 | Koff × 10^4 [2, 14]: 6.2 s^−1 | Kon × 10^−5 [2, 14]: 4.3 M^−1 s^−1 | SPR binding to IL-17R (in words) [3]: no binding was observed | binding to IL-17RH1 receptor (PRO5801) [9]: binds to | binding result [10]: no binding | Kd [11]: 1.1 nM | koff [11]: 0.0007 s⁻¹ | kon [11]: 670000 M⁻¹ s⁻¹ | competition for binding of IL-17RH1 to immobilized IL-17E [12]: completely inhibited
